In paper PMC11339409:

Columns and labels:
[1] = molecular target: LUJV glycoprotein-2 (GP2) (Lujo virus (LUJV)); assay: cryo-EM structure
[2] = molecular target: LUJV glycoprotein-1 (GP1) (Lujo virus (LUJV)); assay: cryo-EM structure

LUJV glycoprotein-2 (GP2) (domain or fragment)
stoichiometry N [1]: 3

LUJV glycoprotein-1 (GP1) (domain or fragment)
stoichiometry N [2]: 3
